{
  "source": "patent US20110268755A1",
  "about": "(HEALTH RESEARCH, published 2011)",
  "binders": {"B1": {"name": "SVN53-67/M57 (peptide)", "peptide": "DLAQMFFCFKELEGW", "notes": "also called Survivin M57; Survivin-53-67/57M"}},
  "key": {"[1]": {"target": "T1, HLA-A*0201 (human)", "T1 construct": "also called human MHC class I; MHC I", "assay": "competitive peptide binding assay, displacement of fluorescently labeled HPV18-27 from HLA-A*0201", "source_text": "To obtain the data summarized in FIGS. 4A and 4B, survivin peptide epitopes were used in MHC class I peptide competitive displacement assays. […] Positive control peptides (Flu & gp100) represent known immunogenic MHC class I ligands. Data represent mean fluorescence±S.E.M. of triplicate samples."}, "[2]": {"target": "T1, HLA-A*0201", "assay": "survivin/MHC Class I-specific HLA-A*0201 pentamer binding"}, "[3]": {"target": "T2, H2-K^b (mouse, UniProt P01887 21-119; P01901 22-369, limits assumed)", "T2 construct": "whole, on cells; also called murine MHC class I", "T2 sequence (MHC heavy, looked up)": "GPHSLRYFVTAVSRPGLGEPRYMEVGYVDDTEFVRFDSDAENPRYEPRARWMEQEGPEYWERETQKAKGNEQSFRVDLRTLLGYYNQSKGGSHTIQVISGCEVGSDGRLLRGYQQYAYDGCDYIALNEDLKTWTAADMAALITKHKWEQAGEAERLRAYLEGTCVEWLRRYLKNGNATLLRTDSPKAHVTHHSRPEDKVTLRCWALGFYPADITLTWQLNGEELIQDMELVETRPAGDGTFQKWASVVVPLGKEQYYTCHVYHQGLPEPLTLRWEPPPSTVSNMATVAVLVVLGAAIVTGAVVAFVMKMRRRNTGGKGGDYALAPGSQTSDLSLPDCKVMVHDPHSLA", "T2 sequence (b2m, looked up)": "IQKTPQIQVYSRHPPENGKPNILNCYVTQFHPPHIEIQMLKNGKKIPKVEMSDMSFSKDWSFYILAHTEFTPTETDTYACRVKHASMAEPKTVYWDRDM", "assay": "H2-K^b upregulation on RMA-S cells, 100 µM peptide, 37° C.", "method": "To obtain the data presented in FIG. 3, survivin peptide epitopes were used in conventional MHC class I peptide binding assays. Mean fluorescence in FIG. 3 represents binding of SVN peptides to H2-K^b. Upregulation of H2-K^b molecules on the surface of murine RMA-S cells which are deficient in the expression of surface MHC class I molecules was used to determine actual survivin peptide binding in vitro. Data presented in FIG. 3 represent the binding of 100 μM peptide at 37° C."}},
  "data": [
    {"binder": "DLAQCFFCFKELEGW", "note": "[wild type SVN53-67]", "values": [
      {"measurement": "binding result", "setting": "[1]", "result": "binds"}
    ]},
    {"binder": "B1", "values": [
      {"measurement": "fold stronger binding than wild type SVN53-67", "setting": "[1]", "result": "~12", "unit": "fold"}
    ]},
    {"binder": "QCFFCFKEL", "note": "[wild type SVN56-64]", "values": [
      {"measurement": "binding result", "setting": "[2]", "result": "binds"}
    ]},
    {"binder": "QMFFCFKEL (also called core peptide SVN56-64/M57)", "note": "[SVN56-64/M57]", "values": [
      {"measurement": "fold stronger binding than wild type SVN56-64", "setting": "[2]", "result": "~73", "unit": "fold"}
    ]},
    {"binder": "CFFCFKEL (also called SVN 57-64 wt)", "note": "[SVN-57-64]", "values": [
      {"measurement": "binding result", "setting": "[3]", "result": "binds"}
    ]},
    {"binder": "MFFCFKEL", "note": "[SVN-57-64/M57]", "values": [
      {"measurement": "binding result", "setting": "[3]", "result": "binds"}
    ]},
    {"binder": "TLGEFLKL", "note": "[SVN97-104]", "values": [
      {"measurement": "binding result", "setting": "[3]", "result": "binds"}
    ]}
  ]
}
